The text below walks through data of patent publication US20240262879.

The labels stand for the following.
B1: rhMMP7 (protein)
chain: YSLFPNSPKWTSKVVTYRIVSYTRDLPHITVDRLVSKALNMWGKEIPLHFRKVVWGTADIMIGFARGAHGDSYPFDGPGNTLAHAFAPGTGLGGDAHFDEDERWTDGSSLGINFLYAATHELGHSLGMGHSSDPNAVMYPTYGNGDPQNFKLSQDDIKGIQKLYGKRSNSRKK
B2: rmMMP9 (protein)
chain: FQTFKGLKWDHHNITYWIQNYSEDLPRDMIDDAFARAFAVWGEVAPLTFTRVYGPEADIVIQFGVAEHGDGYPFDGKDGLLAHAFPPGAGVQGDAHFDDDELWSLGKGVVIPTYYGNSNGAPCHFPFTFEGRSYSACTTDGRNDGTPWCSTTADYDKDGKFGFCPSERLYTEHGNGEGKPCVFPFIFEGRSYSACTTKGRSDGYRWCATTANYDQDKLYGFCPTRVDATVVGGNSAGELCVFPFVFLGKQYSSCTSDGRRDGRLWCATTSNFDTDKKWGFCPDQGYSLFLVAAHEFGHALGLDHSSVPEALMYPLYSYLEGFPLNKDDIDGIQYLYGRGSKPDPRPPATTTTEPQPTAPPTMCPTIPPTAYPTVGPTVGPTGAPSPGPTSSPSPGPTGAPSPGPTAPPTAGSSEASTESLSPADNPCNVDVFDAIAEIQGALHFFKDGWYWKFLNHRGSPLQGPFLTARTWPALPATLDSAFEDPQTKRVFFFSGRQMWVYTGKTVLGPRSLDKLGLGPEVTHVSGLLPRRLGKALLFSKGRVWRFDLKSQKVDPQSVIRVDKEFSGVPWNSHDIFQYQDKAYFCHGKFFWRVSFQNEVNKVDHEVNQVDDVGYVTYDLLQCP
B3: rhMMP1 (protein)
chain: FVLTEGNPRWEQTHLTYRIENYTPDLPRADVDHAIEKAFQLWSNVTPLTFTKVSEGQADIMISFVRGDHRDNSPFDGPGGNLAHAFQPGPGIGGDAHFDEDERWTNNFREYNLHRVAAHELGHSLGLSHSTDIGALMYPSYTFSGDVQLAQDDIDGIQAIYGRSQNPVQPIGPQTPKACDSKLTFDAITTIRGEVMFFKDRFYMRTNPFYPEVELNFISVFWPQLPNGLEAAYEFADRDEVRFFKGNKYWAVQGQNVLHGYPKDIYSSFGFPRTVKHIDAALSEENTGKTYFFVANKYWRYDEYKRSMDPGYPKMIAHDFPGIGHKVDAVFMKDGFFYFFHGTRQYKFDPKTKRILTLQKANSWFNCRKN
B4: rhMMP2 (protein)
chain: YNFFPRKPKWDKNQITYRIIGYTPDLDPETVDDAFARAFQVWSDVTPLRFSRIHDGEADIMINFGRWEHGDGYPFDGKDGLLAHAFAPGTGVGGDSHFDDDELWTLGEGQVVRVKYGNADGEYCKFPFLFNGKEYNSCTDTGRSDGFLWCSTTYNFEKDGKYGFCPHEALFTMGGNAEGQPCKFPFRFQGTSYDSCTTEGRTDGYRWCGTTEDYDRDKKYGFCPETAMSTVGGNSEGAPCVFPFTFLGNKYESCTSAGRSDGKMWCATTANYDDDRKWGFCPDQGYSLFLVAAHEFGHAMGLEHSQDPGALMAPIYTYTKNFRLSQDDIKGIQELYGASPDIDLGTGPTPTLGPVTPEICKQDIVFDGIAQIRGEIFFFKDRFIWRTVTPRDKPMGPLLVATFWPELPEKIDAVYEAPQEEKAVFFAGNEYWIYSASTLERGYPKPLTSLGLPPDVQRVDAAFNWSKNKKTYIFAGDKFWRYNEVKKKMDPGFPKLIADAWNAIPDNLDAVVDLQGGGHSYFFKGAYYLKLENQSLKSVKFGSIKSDWLGC

The first series has as its target Peptide 8.
B1 yielded a Specific Activity of 70.9 pmol/min/µg.
B2 came in with a Specific Activity of 158 pmol/min/µg.
On the same count and under the same terms, the result for B3 reads 10.8 pmol/min/µg.
Still for that read-out and setting: under B4 stands 260 pmol/min/µg.

The target in a further series is Peptide 10.
B1 came in with a Specific Activity of 98.4 pmol/min/µg.
Take B2: the Specific Activity is 111 pmol/min/µg.
Same read-out and setting: the result for B3 reads 10 pmol/min/µg; that for B4, 163 pmol/min/µg.

The target of a further series is Control (peptide of Table 12).
Regarding B1, the Specific Activity came to 10 pmol/min/µg.
B2 came in with a Specific Activity of 10 pmol/min/µg.
As to B3, the Specific Activity stood at 10 pmol/min/µg.
The same measure, in the same setting: under B4 stands 10 pmol/min/µg.

In another series the target is T1, Peptide 5 (GPLGVRG).
T1 chain: GPLGVRG
In the case of B1, the Specific Activity turned out to be 10 pmol/min/µg.
B2 showed a Specific Activity of 292 pmol/min/µg.
With B3, the Specific Activity is 10 pmol/min/µg.
The same measure, in the same setting: the result for B4 reads 260 pmol/min/µg.
